B1: LINE1-full (parent)
chain: UACGUAGGUGGUUUUCCCCUGAUAGUGCUAAGGGGGCCUGGAAGUUUGGACUGGGCAGAGCUCAACACAGCGUGGCAAAGUGGCUGUGGCUAGACUGCCUCUCUGGAUUCCUCGUCACUCAGCAGGGCAUCUCUGAGAGAAAUGCC

Results on 20 variants are retold here after the RNAGym collection of RNA variant scans (doi:10.7554/elife.90254).

In this data set the parent is B1. As to the kind of experiment: self-cleavage, relative activity (ratio to wild type); higher = more cleavage; in vitro, sequencing; the parent is a self-cleaving ribozyme.
UACGUAGGUGGUUUUCCCCUAAUAGUGCUAAGGGGGCCUGGAAGUUUGGACUGGGCAGAGCUCAACACAGCGUGGCAAAGUGGCUGUGGCUAGACUGCCUCUCAGGAUUCCUCGUCACUCAGCAGGGCAUCUCUGAGAGAAAUGCC: the self-cleavage was found to be 1.27.
In the case of UACGUAGGUGGUUUUCCCCUUAUAGUGCUAAGGGGGCCUGGAAGUUUGGACUGGGCAGAGCUCAACACAGCAUGGCAAAGUGGCUGUGGCUAGACUGCCUCUCUGGAUUCCUCGUCACUCAGCAGGGCAUCUCUGAGAGAAAUGCC it was 1.62; in that of UACGUAGGUGGUUUUCCCCUUAUAGUGCUAAGGGGGCCUGGAAGUUUGGACUGGGCAGAGCACAACACAGCGUGGCAAAGUGGCUGUGGCUAGACUGCCUCUCUGGAUUCCUCGUCACUCAGCAGGGCAUCUCUGAGAGAAAUGCC, 0.02.
Regarding UACGUAGGUGGUUUUCCCCUAAUAGUGCUAAGGGGGCCUGGAAGUUUGGACUGGGCAGAGCUCAACACAGCGUGGCAAAGUGGCUGUGGCUAGACUGCCUCUCUGGAUUCCCCGUCACUCAGCAGGGCAUCUCUGAGAGAAAUGCC, the self-cleavage is 1.02.
In the case of UACGUAGGUGGUUUUCCCCUAAUAGUGCUAAGGGGGCCUGGAAGUUUGGACUGGGCAGAGCUCAACACAGCGUGGCAAAGUGGCUGUGGCUAGACUGCCUCUCUGGAUUCCUCGACACUCAGCAGGGCAUCUCUGAGAGAAAUGCC it was 1.46; in that of UACGUAGGUGGUUUUCCCCUUAUAGUGCUAAGGGGGCCUGGAAGUUUGGACUGGGCAGAGCUCAACACAGCGUGGCAAAGUGGCUGUGGCUAGACUGCCUCUCUGGAUUCCUCGUCACCCAGCAGGGCAUCUCUGAGAGAAAUGCC, 1.84; in that of UACGUAGGUGGUUUUCCCCUAAUAGUGCUAAGGGGGCCUGGAAGUUUGGACUGGGCAGAGCUCAACACAGCGUGGCAAAGUGGCUGUGGCUAGACAGCCUCUCUGGAUUCCUCGUCACUCAGCAGGGCAUCUCUGAGAGAAAUGCC, 0.06.
In the case of UACGUAGGUGGUUUUCCCCUAAUAGUGCUAAGGGGGCCUGGAAGUUUGGACUGGGCAGAGCUCAACACAGCGUGGCAAAGUGGCUGUGGCUAGACUGCCUCUCUGGAUUCCUCGUCACUCAGCAGGGCAUCUCAGAGAGAAAUGCC it was 1.17.
In the case of UACGUAGGUGGUUUUCCCCUUAUAGUGCUAAGGGGGCCUGGAAGUUUGGACUGGGCAGAGCUCAACACAGCGUGGCAAAGUGGCUGUGGCUAGACUGCCUCUCUGGAUUCCUCGCCACUCAGCAGGGCAUCUCUGAGAGAAAUGCC it was 2.18; in that of UACGUAGGUGGUUUUCCCCUUAUAGUGCUAAGGGGGCCUGGAAGUUUGGACUGGGCAGAGCUCAACACAGCGUGGCGAAGUGGCUGUGGCUAGACUGCCUCUCUGGAUUCCUCGUCACUCAGCAGGGCAUCUCUGAGAGAAAUGCC, 1.7; in that of UACGUAGGUGGUUUUCCCCUUAUAGUGCUAAGGGGGCCUGGAAGUUUGGACUGGGCAGAGCUCACCACAGCGUGGCAAAGUGGCUGUGGCUAGACUGCCUCUCUGGAUUCCUCGUCACUCAGCAGGGCAUCUCUGAGAGAAAUGCC, 0.
Regarding UACGUAGGUGGUUUUCCCCUAAUAGUGCUAAGGGGGCCUGGAAGUUUGGACUGGGCAGAGCUCAACACAGCGUGGCAAAGUGGCUGUGGCUAGACUGCCUCUCUGGAUCCCUCGUCACUCAGCAGGGCAUCUCUGAGAGAAAUGCC, the self-cleavage turned out to be 0.95.
Consider UACGUAGGUGGUUUUCCCCUAAUAGUGCUAAGGGGGCCUGGAAGUUUGGACUGGGCAGAGCUCAACACAGCGUGGCAAAGUGGCUGUGGCUAGACUGCCUCUCUGGAUACCUCGUCACUCAGCAGGGCAUCUCUGAGAGAAAUGCC, for which the self-cleavage was found to be 0.64.
With UACGUAGGUGGUUUUCCCCUUAUAGUGCUAAGGGGGCCUGGAAGUUUGGAAUGGGCAGAGCUCAACACAGCGUGGCAAAGUGGCUGUGGCUAGACUGCCUCUCUGGAUUCCUCGUCACUCAGCAGGGCAUCUCUGAGAGAAAUGCC, the self-cleavage turned out to be 1.48.
Take UACGUAGGUGGUUUUCCCCUUAUAGUGCUAAGGGGGCCUGGAAGUUUGGACUGGGCAGAGCUCAACACAGCGUGGCAAAGUGGCUGUGGCUAGGCUGCCUCUCUGGAUUCCUCGUCACUCAGCAGGGCAUCUCUGAGAGAAAUGCC: the self-cleavage turned out to be 0.18.
In the case of UACGUAGGUGGUUUUCCCCUCAUAGUGCUAAGGGGGCCUGGAAGUUUGGACUGGGCAGAGCUCAACACAGCGUGGCAAAGUGGCUGUGGCUAGACUGCCUCUCUGGAUUCCUCGUCACUCAGCAGGGCAUCUCUGAGAGAAACGCC it was 1.97; in that of UACGUAGGUGGUUUUCCCCUUAUAGUGCUAAGGGGGCCUGGAAGUUUGGACUGGGCAGAGCUCAACACAGCGUGGCAAAGUGGCUGUGGCCAGACUGCCUCUCUGGAUUCCUCGUCACUCAGCAGGGCAUCUCUGAGAGAAAUGCC, 0.45; in that of UACGUAGGUGGUUUUCCCCUUAUAGUGCUAAGGGGGCCUGGAAGUUUGGACUGGGCAGAGCUCAACACAGCGUGGCAAAGUGGCUGUGGCUAGACCGCCUCUCUGGAUUCCUCGUCACUCAGCAGGGCAUCUCUGAGAGAAAUGCC, 0.06.
In the case of UACGUAGGUGGUUUUCCCCUAAUAGUGCUAAGGGGGCCUGGAAGUUUGGACUGGGCAGAGCUCAACACAGCGUGGCAAAGUGGCUGUGGCUAGACUGCCUCACUGGAUUCCUCGUCACUCAGCAGGGCAUCUCUGAGAGAAAUGCC it was 1.14; in that of UACGUAGGUGGUUUUCCCCUUAUAGUGCUAAGGGGGCCUGGAAGUUUGGACUGGGCAGAGCUCAACACAGCGUGGCAAAGUGGCGGUGGCUAGACUGCCUCUCUGGAUUCCUCGUCACUCAGCAGGGCAUCUCUGAGAGAAAUGCC, 0.08.
